In test [1] the target is T1, soluble human CTLA-4 expressed with a C-terminal myc-myc-polyhistidine tag (human).
T1 construct: soluble protein; also called hCTLA-4.mmh; hCTLA4.mmh
The test can be described thus: SPR, mAb capture, 25 C.

Test [2] deals with T2, soluble Macaca fascicularis CTLA-4 expressed with a C-terminal myc-myc-polyhistidine tag (Macaca fascicularis).
T2 construct: soluble protein; also called mf CTLA-4.mmh; mfCTLA4.mmh
T2 chain: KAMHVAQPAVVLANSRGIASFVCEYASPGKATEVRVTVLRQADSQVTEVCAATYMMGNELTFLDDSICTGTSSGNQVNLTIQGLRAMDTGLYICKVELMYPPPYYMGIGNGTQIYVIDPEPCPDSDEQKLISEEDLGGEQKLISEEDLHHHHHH
The test can be described thus: SPR, mAb capture, 25 C.

Test [3] concerns the target T3, human CTLA-4 (amino acids M1-N223) on stably transfected VI-fibroblast cells (human, UniProt P16410 36-223).
T3 construct: also called VI-fibroblast/hCTLA-4
The test can be described thus: ECL cell binding, VI-fibroblast/hCTLA-4 cells.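 Further: antibodies bound to the cells on carbon electrode plates, detected via SULFO-TAG anti-IgG secondary (1 h, RT), electrochemiluminescence read as RLU over a concentration range.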

Test [4] deals with T4, recombinant hCTLA-4-mFc (human CTLA-4 extracellular domain with a C-terminal Fc portion of mouse IgG2a) (human).
T4 construct: also called dimeric CTLA-4 protein
T4 sequence (chain, as listed by the source limits assumed): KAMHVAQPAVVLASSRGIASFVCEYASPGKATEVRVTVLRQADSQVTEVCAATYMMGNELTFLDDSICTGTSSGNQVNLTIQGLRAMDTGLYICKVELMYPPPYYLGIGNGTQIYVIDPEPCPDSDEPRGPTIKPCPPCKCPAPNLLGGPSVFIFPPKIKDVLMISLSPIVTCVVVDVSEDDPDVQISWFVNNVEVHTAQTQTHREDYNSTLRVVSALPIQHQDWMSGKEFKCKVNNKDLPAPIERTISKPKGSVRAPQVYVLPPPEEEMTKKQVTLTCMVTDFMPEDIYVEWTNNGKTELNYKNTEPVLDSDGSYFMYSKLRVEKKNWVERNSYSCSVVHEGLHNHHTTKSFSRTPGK
Put plainly: competition ELISA, 200 pM hCTLA-4-mFc on plate-coated hB7-1-hIgG1-6His. (An ELISA detects its analyte on a solid surface through an enzyme-linked reagent.)

Test [5] has as its target T4, recombinant hCTLA-4-mFc (human CTLA-4 …). Put plainly: competition ELISA, 400 pM hCTLA-4-mFc on plate-coated hB7-2-hIgG1-6His.

T3 sequence (P16410 36-223 limits assumed): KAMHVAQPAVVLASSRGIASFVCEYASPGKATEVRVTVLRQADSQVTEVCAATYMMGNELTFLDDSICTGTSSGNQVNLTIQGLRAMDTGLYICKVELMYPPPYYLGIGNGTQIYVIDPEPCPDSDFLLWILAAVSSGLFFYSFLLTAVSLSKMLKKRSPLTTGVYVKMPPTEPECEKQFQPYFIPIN

B1: H1H19284P (antibody, human IgG1, V domains shown)
VH: EVQLVESGGGLVQPGGSLRLSCAASGFTLSNYVMTWVRQAPGKGLEWVSAISGRGGNSYYADSVKGRFSISRDHSKNTLYLQVNSLRAEDTAVYYCAKAERGYSYGFNWFDPWGQGTLVTVSS
VL: DIQMTQSPSSVSASAGDRVTITCRASQGISSWLAWYQQKPGKAPKLLIYAASSLQSGVPSRFSGSGSGTDFTLTISSLQPEDFASYYCQQGNNFPLTFGGGTKVEIK
Regarding B1, in test [1], the Kd (commonly the constant that tells how readily two partners part at equilibrium) came to 2.49 nM; the koff (commonly the rate constant with which the complex falls apart) is 0.000369 s⁻¹; the kon (as a rule, the second-order rate constant of association) came out at 148000 M⁻¹ s⁻¹; the t1/2 is 31.3 min. For the same molecule, in test [2], binding was characterised by a dissociation constant (Kd) of 1.57 nM, the koff amounted to 0.000305 s⁻¹, the kon was 194000 M⁻¹ s⁻¹ and the t1/2 amounted to 37.9 min. The “ratio of RLU signal to parental VI-fibroblast at 0.4 nM Ab” value (“ratio of RLU signal” for short) in test [3] is 7 ratio. In addition, in test [4], the “% Blockade” value is 98% and the IC50 (usually the midpoint of a concentration-inhibition curve) came to 0.17 nM. Further, in test [5], the “% Blockade” value amounted to 99% and the IC50 was 0.31 nM.

B2: H1H19283P (antibody, human IgG1, V domains shown)
VH: QVQLVESGGGLVKPGGSLRLSCAASGFTFSDYYMTWIRQAPGKGLEWVSYISSSGGNIFYADSVKGRFTISRDNAKNSLYLQMNSLRGEDTAVYYCARGLEPYHYYYGMDVWGQGTTVTVSS
VL: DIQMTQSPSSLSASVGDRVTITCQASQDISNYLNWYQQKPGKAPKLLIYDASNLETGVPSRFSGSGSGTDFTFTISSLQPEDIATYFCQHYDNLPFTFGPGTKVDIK
Turning to B2, in test [1], the Kd was 3.75 nM, the koff is 0.000828 s⁻¹, the kon amounted to 221000 M⁻¹ s⁻¹ and the t1/2 is 14 min. In test [2], this molecule had a Kd of 3.11 nM, a koff of 0.000683 s⁻¹, a kon of 220000 M⁻¹ s⁻¹ and a t1/2 of 16.9 min. In test [3], the EC50 (in general, the concentration giving half of the maximal effect) was determined as 0.79 nM and the “ratio of RLU signal” value worked out at 7 ratio. Moreover, in test [4], the “% Blockade” value worked out at 96% and the IC50 came to 9.7 nM. Besides, in test [5], the “% Blockade” value worked out at 99% and the IC50 came to 1.2 nM.

B3: H1H19280P (antibody, human IgG1, V domains shown)
VH: QLQLQESGPGLVKPSETLSLTCIVSGGSTSSNTYYWGWIRQPPGKGLEWIGTIHYSGNPYYDPSLKSRVTISVDTSKNHFSLKLNSVTAADTAVYYCTRQYINFFDFWGQGTLVTVSS
VL: EIVLTQSPATLSLSPGERVTLSCRASQSISRYLAWYQQKPGQAPRVLIYDASNRATDIPARFSGSGSGTDFTLTISSLEPEDFAVYYCQQRSNWPITFGQGTRLEIK
Regarding B3, in test [1], the Kd is 1.03 nM, the koff stood at 0.000346 s⁻¹, the kon worked out at 337000 M⁻¹ s⁻¹ and the t1/2 stood at 33.4 min. Besides, in test [2], the Kd is 0.964 nM, the koff was determined as 0.000309 s⁻¹, the kon is 320000 M⁻¹ s⁻¹ and the t1/2 came out at 37.4 min. In addition, in test [3], the EC50 stood at 1.3 nM and the “ratio of RLU signal” value came to 15 ratio. Also, in test [4], the “% Blockade” value turned out to be 99% and the IC50 came out at 0.11 nM. Further, in test [5], the “% Blockade” value turned out to be 100% and the IC50 was 0.2 nM.

B4: H1H19294P (antibody, human IgG1, V domains shown)
VH: QVQLVQSGAEVKMSGASVRVSCKASGYTFTSYGISWMRQAPGQGLEWMGWITAYNGNSNYAQKLQGRVTMTTDTSTGTAYMELRSLTSDDTAVYYCARRGDYLGVFPYWGQGTLVTVSS
VL: DIQMTQSPSSLSASVGDRVTITCRASQSISSYLNWYQQKPGKAPNLLIYTASSLQSGVPSRFSGSGSGTDFTLTISSLQPEDFATYYCQQSYSSPLTFGGGTKVEIK
In the case of B4, in test [1], the affinity, expressed as Kd, was 1.13 nM; the koff turned out to be 0.000323 s⁻¹; the kon is 285000 M⁻¹ s⁻¹; the t1/2 was determined as 35.7 min. Moreover, in test [2], the affinity, expressed as Kd, was 1.02 nM; the koff turned out to be 0.000269 s⁻¹; the kon stood at 263000 M⁻¹ s⁻¹; the t1/2 amounted to 43 min. For the same molecule, in test [3], the half-maximal effective concentration (EC50) was determined as 0.68 nM and the “ratio of RLU signal” value came to 10 ratio. Moreover, in test [4], the “% Blockade” value is 99% and the IC50 came out at 0.15 nM. Besides, in test [5], the “% Blockade” value stood at 99% and the IC50 is 0.25 nM.

For the origin of these results see patent publication US20210040232A1 (Regeneron, published 2021).
